{
  "source": "patent US20250026844A1",
  "key": {"[1]": {"target": "monkey BCMA-His protein (monkey)", "sequence (A0A2K5 entry or part of it limits assumed)": "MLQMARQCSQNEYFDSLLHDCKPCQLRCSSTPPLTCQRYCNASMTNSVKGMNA", "assay": "ELISA, coated monkey BCMA-His, antibody 1 nM"}, "[2]": {"target": "human BCMA-His protein (human) (UniProt Q02223)", "sequence (Q02223 1-54 limits assumed)": "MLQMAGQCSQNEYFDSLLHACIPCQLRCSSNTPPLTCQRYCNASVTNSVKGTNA", "assay": "ELISA, coated human BCMA-His, antibody 0.001 nM"}, "[3]": {"target": "human BCMA-His protein (human) (UniProt Q02223)", "assay": "ELISA, coated human BCMA-His, antibody 0.0001 nM"}, "[4]": {"target": "human BCMA on cells (human) (UniProt Q02223)", "sequence (Q02223 whole entry)": "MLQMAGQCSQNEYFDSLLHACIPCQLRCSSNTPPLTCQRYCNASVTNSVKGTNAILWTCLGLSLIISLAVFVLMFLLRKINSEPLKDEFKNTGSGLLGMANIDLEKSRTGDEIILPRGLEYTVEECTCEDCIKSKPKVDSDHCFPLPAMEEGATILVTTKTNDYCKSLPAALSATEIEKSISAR", "assay": "FACS, Flp-in CHO-human BCMA cells"}, "[5]": {"target": "monkey BCMA-His protein (monkey)", "assay": "ELISA, coated monkey BCMA-His, antibody 0.0001 nM"}, "[6]": {"target": "human BCMA-His protein (human) (UniProt Q02223)", "assay": "ELISA, coated human BCMA-His, antibody 0.01 nM"}, "[7]": {"target": "monkey BCMA on Flp-inCHO cells (monkey)", "assay": "FACS, Flp-in CHO-monkey BCMA cells"}, "[8]": {"target": "human BCMA-His protein (human) (UniProt Q02223)", "assay": "ELISA, coated human BCMA-His, antibody 0.1 nM"}, "[9]": {"target": "human BCMA-His protein (human) (UniProt Q02223)", "assay": "ELISA, coated human BCMA-His, antibody 1 nM"}, "[10]": {"target": "human BCMA on cells (human) (UniProt Q02223)", "assay": "FACS, H929 cells"}, "[11]": {"target": "human BCMA on cells (human) (UniProt Q02223)", "assay": "FACS, U266 cells"}, "[12]": {"target": "human BCMA-His protein (human) (UniProt Q02223)", "assay": "ELISA, coated human BCMA-His, antibody 10 nM"}, "[13]": {"target": "human BCMA on cells (human) (UniProt Q02223)", "assay": "FACS, U266 cells", "remark": "listed apart in the source"}, "[14]": {"target": "human BCMA on cells (human) (UniProt Q02223)", "assay": "FACS, H929 cells", "remark": "listed apart in the source"}, "[15]": {"target": "human BCMA on cells (human) (UniProt Q02223)", "assay": "FACS, H929 cells", "remark": "listed apart in the source"}, "[16]": {"target": "monkey BCMA-His protein (monkey)", "assay": "ELISA, coated monkey BCMA-His, antibody 0.1 nM"}, "[17]": {"target": "monkey BCMA-His protein (monkey)", "assay": "ELISA, coated monkey BCMA-His, antibody 0.01 nM"}, "[18]": {"target": "human BCMA-His protein (human) (UniProt Q02223)", "assay": "ELISA, coated human BCMA-His, antibody 100 nM"}, "[19]": {"target": "monkey BCMA-His protein (monkey)", "assay": "ELISA, coated monkey BCMA-His, antibody 10 nM"}, "[20]": {"target": "monkey BCMA-His protein (monkey)", "assay": "ELISA, coated monkey BCMA-His, antibody 100 nM"}, "[21]": {"target": "human BCMA on cells (human) (UniProt Q02223)", "assay": "FACS, U266 cells", "remark": "listed apart in the source"}, "[22]": {"target": "human BCMA on cells (human) (UniProt Q02223)", "assay": "FACS, H929 cells", "remark": "listed apart in the source"}, "[23]": {"target": "monkey BCMA-His protein (monkey)", "assay": "ELISA, coated monkey BCMA-His, antibody 0.001 nM"}, "[24]": {"target": "human BCMA on cells (human) (UniProt Q02223)", "assay": "FACS, U266 cells", "remark": "listed apart in the source"}},
  "note": "Where “and” joins values, the source holds several entries; their conditions need not be identical. Equal values may be shown once.",
  "data": [
    {"substance": "anti-hel-hlgG1 (negative control antibody against hen egg lysozyme)", "values": [
      {"measurement": "OD450 nm", "setting": "[1]", "value": 0.05, "unit": "OD450 nm"},
      {"measurement": "OD450 nm", "setting": "[2]", "value": 0.05, "unit": "OD450 nm"},
      {"measurement": "OD450 nm", "setting": "[3]", "value": 0.05, "unit": "OD450 nm"},
      {"measurement": "Cell mean fluorescence density", "setting": "[4]", "value": 54.6, "unit": "MFI"},
      {"measurement": "OD450 nm", "setting": "[5]", "value": 0.05, "unit": "OD450 nm"},
      {"measurement": "OD450 nm", "setting": "[6]", "value": 0.05, "unit": "OD450 nm"},
      {"measurement": "Cell mean fluorescence density", "setting": "[7]", "value": 49, "unit": "MFI"},
      {"measurement": "OD450 nm", "setting": "[8]", "value": 0.05, "unit": "OD450 nm"},
      {"measurement": "OD450 nm", "setting": "[9]", "value": 0.05, "unit": "OD450 nm"},
      {"measurement": "Maximum mean fluorescence intensity", "setting": "[10]", "value": 93, "unit": "MFI"},
      {"measurement": "Maximum mean fluorescence intensity", "setting": "[11]", "value": "108 MFI and 111 MFI and 119 MFI"},
      {"measurement": "OD450 nm", "setting": "[12]", "value": 0.07, "unit": "OD450 nm"},
      {"measurement": "Maximum mean fluorescence intensity", "setting": "[13]", "value": 103, "unit": "MFI"},
      {"measurement": "Maximum mean fluorescence intensity", "setting": "[14]", "value": "99 MFI and 91 MFI and 167 MFI"},
      {"measurement": "Maximum mean fluorescence intensity", "setting": "[15]", "value": 121, "unit": "MFI"},
      {"measurement": "OD450 nm", "setting": "[16]", "value": 0.05, "unit": "OD450 nm"},
      {"measurement": "OD450 nm", "setting": "[17]", "value": 0.04, "unit": "OD450 nm"},
      {"measurement": "OD450 nm", "setting": "[18]", "value": 0.12, "unit": "OD450 nm"},
      {"measurement": "OD450 nm", "setting": "[19]", "value": 0.06, "unit": "OD450 nm"},
      {"measurement": "OD450 nm", "setting": "[20]", "value": 0.1, "unit": "OD450 nm"},
      {"measurement": "Maximum mean fluorescence intensity", "setting": "[21]", "value": 149, "unit": "MFI"},
      {"measurement": "Maximum mean fluorescence intensity", "setting": "[22]", "value": 110, "unit": "MFI"},
      {"measurement": "OD450 nm", "setting": "[23]", "value": 0.05, "unit": "OD450 nm"},
      {"measurement": "Maximum mean fluorescence intensity", "setting": "[24]", "value": 124, "unit": "MFI"}
    ]}
  ]
}
